The source of these data is article PMC3419070, “Identification of novel mitosis regulators through data mining with human centromere/kinetochore proteins as group queries” (BMC Cell Biology, 2012).

The assay addresses T1, purified recombinant 6×His-TRIP13 (human, UniProt Q15645 1-432).
T1 construct: TRIP13, human AAA-ATPase; full-length cDNA cloned by the Gateway system; The host is probably E. coli: the methods name destination vectors for E. coli or mammalian cells; also called His-tagged TRIP13
T1 sequence (looked up): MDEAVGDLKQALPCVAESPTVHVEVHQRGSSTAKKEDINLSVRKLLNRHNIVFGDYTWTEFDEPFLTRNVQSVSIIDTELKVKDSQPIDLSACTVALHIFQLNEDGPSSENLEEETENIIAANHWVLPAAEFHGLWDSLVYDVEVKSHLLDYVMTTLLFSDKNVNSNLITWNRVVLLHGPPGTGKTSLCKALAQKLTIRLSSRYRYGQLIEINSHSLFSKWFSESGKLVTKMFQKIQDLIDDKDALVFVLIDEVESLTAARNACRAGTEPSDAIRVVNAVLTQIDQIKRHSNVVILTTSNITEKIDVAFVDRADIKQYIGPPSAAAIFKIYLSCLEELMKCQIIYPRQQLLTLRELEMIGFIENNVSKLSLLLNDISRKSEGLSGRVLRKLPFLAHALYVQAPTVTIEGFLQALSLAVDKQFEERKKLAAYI
The experiment in a line: pull-down; in vitro binding of recombinant proteins: His-TRIP13 at 100 nM, GST-p31^comet at increasing concentrations; Probond nickel beads, washed; blots with anti-6×His and anti-GST antibodies. To be noted: both partners purified.

B1: purified recombinant GST-p31^comet (natural protein, human, UniProt Q15013 1-274, looked up)
chain: MAAPEAEVLSSAAVPDLEWYEKSEETHASQIELLETSSTQEPLNASEAFCPRDCMVPVVFPGPVSQEGCCQFTCELLKHIMYQRQQLPLPYEQLKHFYRKPSPQAEEMLKKKPRATTEVSSRKCQQALAELESVLSHLEDFFARTLVPRVLILLGGNALSPKEFYELDLSLLAPYSVDQSLSTAACLRRLFRAIFMADAFSELQAPPLMGTVVMAQGHRNCGEDWFRPKLNYRVPSRGHKLTVTLSCGRPSIRTTAWEDYIWFQAPVTFKGFRE
notes: p31^comet (MAD2L1BP), human mitotic checkpoint silencing protein; full-length cDNA cloned by the Gateway system; The host is probably E. coli: the methods name destination vectors for E. coli or mammalian cells; also called MAD2L1BP
Regarding B1, the binding result is reported as “binds”.
